Results taken from US20250122301A1 (IBIO, published 2025).

T1: CD25 on CD25+ cells (SUDHL-1, HEK IL-2 reporter cells, primary human regulatory T cells) (human, UniProt P01589 22-272)
T1 construct: whole, on cells; also called IL-2Ralpha
T1 sequence (looked up): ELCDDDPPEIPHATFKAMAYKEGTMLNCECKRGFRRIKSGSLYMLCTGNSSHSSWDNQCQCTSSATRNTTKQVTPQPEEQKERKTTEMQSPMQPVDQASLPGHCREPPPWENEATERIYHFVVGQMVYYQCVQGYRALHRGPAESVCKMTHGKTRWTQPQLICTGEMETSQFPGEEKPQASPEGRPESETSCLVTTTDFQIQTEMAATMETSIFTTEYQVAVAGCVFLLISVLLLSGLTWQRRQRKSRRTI

B1: AH05256 (human IgG1 reformatted) (antibody, V domains shown)
VH: QVQLQQPGAELAKPGASVKMSCKASGYTFTRYWIHWVKQRPGQDLEWIGYINPRTDYTEYNQKFKDKATLTADKSSSTAYMQLSSLTSDDSAVYYCARHGYFDYWGQGTTLTVSS
VL: DIQMTQTTSSLSASLGDRVTISCRASQDISNYLNWYQQKPDGTVKLLIYHTSRLQSGVPSRFTGSGSGTDYSLTISNLEQEDIATYFCQQSNSLPPTFGGGTKLEIK
B2: D5 (human IgG1 reformatted) (antibody, V domains shown)
VH: QVQLQQSGAELVRPGTSVKISCKASGYTFTNYWLGWVKQRPGHGLEWIGDIYPGGGYTNYNEKFKGKATLTADTSSSTAYMQLSSLTSEDSAVYFCARVTPASWGQGTSLTVSS
VL: DIVMTQSQKFMSTSVGDRVSVTCKASQNVGTNVAWYQQKPGQSPKALIYSASYRYSGVPDRFTGSGSGTDFTLTISNVQSEDLAEYFCQQYNSYPYTFGGGTKLEMK
B3: AH04524 (human IgG1 reformatted) (antibody, V domains shown)
VH: QIQLQQSGAELVRPGTSVKMSCKAAGYTFTNYWIGWVKQRPGHGLEWIGDIHPGGDYSNYNEKFKGKATLTADTSSSTAYMSLSSLTSEDSAIYYCTSRNFAYWGQGTLVTVSA
VL: DIVMTQSQKFMSTSVGDRVSVTCKASQNVGTNVAWYQQKPGQSPKALIYSASYRYSGVPDRFTGSGSGTDFTLTISNVQSEDLAEYFCQQYNSYPYTFGGGTKLEIK
notes: also called AH4524
B4: AH04527 (human IgG1 reformatted) (antibody, V domains shown)
VH: QVQLQQSGAELVRPGTSVKMSCKAAGYTFTNYWIGWVKQRPGHGLEWIGDIHPGGGYIDYNEKFTGKATLTADTSSSTAYMQLSSLTSEDSAIYYCVSRNFAKWGQGTLVTVSA
VL: DVVMTQSQKFMSTSVGDRVSVTCKASQNVGTNVAWYQQKPGQSPKALIYSASYRYSGVPDRFTGSGSGTDFTLTISNVQSEDLAEYFCQQYNSYPYTFGGGTKLEIK
B5: AH05274 (human IgG1 reformatted) (antibody, V domains shown)
VH: QVQLQQSGAELVRPGTSVKISCKASGYTFTNYWLGWIKQRPGHGLEWIGDIYPGGGYTNYNEKFKGKATLTADTSSSTAYMQLSSLTSEDSAVYFCARVTPASWGQGTSLTVSS
VL: DIQMTQSQKFMSTSVGDRVSVTCKASQNVGTNVAWYQQKPGQSPKALIYSASYRYSGVPDRFTGSGSGTDFTLTISNVQSEDLAEYFCQQYNSYPYTFGGGTKLEIK
B6: D17 (human IgG1 reformatted) (antibody, V domains shown)
VH: QIQLQQSGAELVRPGTSVKISCKASGYTFTNYWLGWVKQRPGHGLEWIGDIYPGGGYTNYNEKFKGKATLTADTSSSTAYMQLSSLTSEDSAVYFCARVTPASWGQGTTLTVSA
VL: DILLTQSQKFMSTSVGDRVSVTCKASQNVGTNVAWYQQKPGQSPKALIYSASYRYSGVPDRFTGSGSGTDFTLTISNVQSEDLAEYFCQQYNSYPLTFGGGTKLEIK
B7: BP003-T2P1C4 (human IgG1 reformatted) (antibody, V domains shown)
VH: QVQLQQSGAELVRPGTSVKISCKASGYTFTNYWLGWVKQRPGHGLEWIGDIYPGGGYTNYNEKFKGKATLTADTSSSTAYMQLSSLTSEDSAVYFCARVTPASWGQGTTVTVSS
VL: DIQMTQSQKFMSASVGDRVSVTCKASQNVGTNVAWYQQKPGQSPKALIYSASYRYSGVPDRFTGSGSGTDFTLTISNVQSEDLAEYFCQQYNSYPYTFGGGTKLEMK
B8: AH04505 (human IgG1 reformatted) (antibody, V domains shown)
VH: DVQLQQSGAELVRPGTSVKMSCKAAGYTFTNYWIGWVKQRPGHGLEWIGDIHPGGGYTNYNEKFKGKATLTADTSSSTAYMQLSSLTSEGSAIYYCTSRNFAYWGQGTLVTVSA
VL: DTTVTQSQKFMSTSVGDRVSVTCKASQNVGTNVAWYQQKPGQSPKALIYSASYRYSGVPDRFTGSGSGTDFTLTISNVQSEDLAEYFCQQYNSYPYTFGGGTKLEMK
notes: also called AH4505
B9: AH04525 (human IgG1 reformatted) (antibody, V domains shown)
VH: QVQLQQSGAELVRPGTSVKMSCKAAGYTFTNYWIGWIKQRPGHGLEWIGDIHPGGDYTNYNEKFKGKATLTADTFSSTAYMQLSSLTSEDSAIYYCTGRNFAYWGQGTLVTVSS
VL: DNVLTQSQKFMSTSVGDRVSVTCKASQNVGTNVAWYQQKPGQSPKALIYSASYRYSGVPDRFTGSGSGTDFTLTISNVQSEDLAEYFCQQYNSYPYTFGGGTKLEMK
notes: also called AH4525
B10: AH04526 (human IgG1 reformatted) (antibody, V domains shown)
VH: QVQLQQSGAELVRPGTSVKMSCKAAGYTFTNYWIGWVKQRPGHGLEWIGDIHPGGDYSNYNEKFKGKATLTADTSSSTAYMNLSSLTSEDSAIYYCTSRNFAYWGQGTPVTVSS
VL: DTTVTQSQKFMSTSVGDRVSVTCKASQNVGTNVAWYQQKPGQSPKALIYSASYRYSGVPDRFTGSGSGTDFTLTISNVQSEDLAEYFCQQYNSYPYTFGGGTKLEMK
B11: AH04502 (human IgG1 reformatted) (antibody, V domains shown)
VH: QIQLQQSGAELVRPGTSVKMSCKAAGYTFTNYWIGWVKQRPGHGLEWIGDIHPGGGYTNYNEKFKGKATLTADTSSSTADMQLSSLTSEDSAIYYCTSRNFAYWGQGTLVTVSA
VL: DIVMTQSQKFMSTSVGDRVSVTCKASQNVGINVAWYQQKPGQSPKALIYSASYRYSGVPDRFTGSGSGTDFTLTISNVQSEDLAEYFCQQYNSYPYTFGGGTKLEIK
notes: also called AH4502
B12: AH04503 (human IgG1 reformatted) (antibody, V domains shown)
VH: QVQLQQPGAELVRPGTSVKMSCKAAGYTFSNYWIGWVKQRPGHGLEWIGDIHPGGGYINYNEKFTGKATLTADTSSSTAYMQLSSLTSEDSAIYYCVSRNFANWGQGTLVTVSA
VL: DIQMTQSQKFMSTSVGDRVSVTCKASQNVGTNVAWYQQKPGQSPKALIYSASYRYSGVPDRFTGSGSGTDFTLTISNVQSEDLAEYFCQQYNSYPWTFGGGTKLEIK
notes: also called AH4503
B13: AH04501 (human IgG1 reformatted) (antibody, V domains shown)
VH: QVQLQQPGAELVRPGTSVKMSCKAAGYTFTNYWIGWVKQRPGHGLEWIGDIHPGGDYSNYNEKFKGKATLTADTSSSTAYMNLSSLTSEDSAIYYCTSRNFAYWGQGTLVTVSA
VL: DVVMTQTQKFTSTSVGDRVSVTCKASQNVGTNVAWYQQKPGQSPKALIYSASYRYSGVPDRFTGSGSGTDFTLTISNVQSEDLAEYFCQQYNSYPYTFGGGTKLEIK
notes: also called AH4501
B14: AH04523 (human IgG1 reformatted) (antibody, V domains shown)
VH: QIQLQQSGAELVRPGTSVKMSCKAAGYTFTNYWIGWVKQRPGHGLEWIGDIHPGGSYTNYNENFKGKATFTADTSSSTTYMQLSSLTSEDSAIYFCTSRNFAKWGQGTPVTVSS
VL: DIVLTQSQKFMSTSVGDRVSVTCKASQNVGTNVAWYQQKPGQSPKALIYSASYRYSGVPDRFTGSGSGTDFTLTISNVQSEDLAEYFCQQYNSYPYTFGGGTKLEIK
notes: also called AH4523
B15: AH04511 (human IgG1 reformatted) (antibody, V domains shown)
VH: QIQLQQSGAELVRPGTSVKMSCKAAGYTFSNYWIGWVKQRPGHGLEWIGDIHPGGGYINYNEKFTGKATLTADTSSSTAYMQLSSLTSEDSAIYYCVSRNFANWGQGTLVTVSA
VL: DIVMSQSQKFMSTSVGDRVSVTCKASQNVGTNVAWYQQKPGQSPKALIYSASYRYSGVPDRFTGSGSGTDFTLTISNVQSEDLAEYFCQQYNSYPYTFGGGTKLEIK
notes: also called AH4511
B16: AH04507 (human IgG1 reformatted) (antibody, V domains shown)
VH: QVQLQQSGAELVRPGTSVKMSCKAAGYTFTNYWIGWVKQRPGHGLEWIGDIHPGGGYIDYNEKFTGKATLTADTSSSTAYMQLSSLTSEDSAIYYCVSRNFAKWGQGTLVTVSA
VL: DTTVTQSQKFMSTSVGDRVSVTCKASQNVGTNVAWYQQKPGQSPKALIYSASYRYSGVPDRFTGSGSGTDFTLTISNVQSEDLAEYFCQQYNSYPYTFGGGTKLEIK
B17: BP003-T2P1D10 (human IgG1 reformatted) (antibody, V domains shown)
VH: QIQLQQPGAELVRPGTSVKISCKASGYTFTNYWLGWVKQRPGHGLEWIGDIYPGGGYTNYNEKFKGKATLTADTSSSTAYMQLSSLTSEDSAVYFCARVTPASWGQGTSLTVSS
VL: DIVITQSQKFMSTSVGDRVSVTCKASQNVGTNVAWYQQKPGQSPKALIYSASYRYSGVPDRLTGSGSGTDFTLTISNVQSEDLAEYFCQQYNRYPYTFGGGTKLEIK
B18: AH04518 (human IgG1 reformatted) (antibody, V domains shown)
VH: QVQLQQSGAELVRPGTSVKMSCKAAGYTFTNYWIGWVKQRPGHDLEWIGDIHPGGDYSNYNEKFKGKATLTADTSSSTAYMNLSSLTSEDSAIYYCTSRNFAYWGQGTLVTVSA
VL: DILLTQSQKFMSTSVGDRVSVTCKASQNVGTNVAWYQQKPGQSPKALIYSASYRYSGVPDRFTGSGSGTDFTLTISNVQSEDLAEYFCQQYNSYPYTFGGGTKLEIK
notes: also called AH4518
B19: AH04522 (human IgG1 reformatted) (antibody, V domains shown)
VH: QIQLQQSGAELVRPGTSVKMSCKAAGYTFTNYWIGWVKQRPGHGLEWIGDIHPGGGYTNYNEKFKGKATLTADTSSSTAYMQLSSLTSEDSAIYYCTSRNFAYWGQGTLVTVSA
VL: DTTVTQSQKFMSTSVGDRVSVTCKAGQNVGTNVAWYQQKPGQSPKALIYSASYRYSGVPDRFTGSGSGTDFTLTISNVQSEDLAEYFCQQYNSYPYTFGGGTKLEIK
B20: AH05259 (human IgG1 reformatted) (antibody, V domains shown)
VH: QVQLQQSGAELVRPGVSVKISCKGSGYTFTDYAMHWVKQSHAKSLEWIGVISTYSGDVSYNQKFKGKATMTVDKSSSTAYMELARLTSEDSAIYYCARGVTFDSWGQGTSLTVSS
VL: DIQMTQTPASLSASVGETVTITCRASENIYSFLEWFQQKQGKSPQLLVYNAKTLAEGVPSRFSVSGSGTQFSLKINSLQPEDFGSYYCQHHYGIPYTFGGGTKLEIK
B21: D36 (human IgG1 reformatted) (antibody, V domains shown)
VH: QVQLQQPGAELVRPGVSLKISCKGSGYTFTDYAMHWVRQSHAKSLEWIGVISTYSGDALYNQKFKGKATMTVDKSSSTAYLELARLTSEDSAIYYCARGVTFDYWGQGTTLTVSS
VL: DVVMTQSPASLSASVGETVTITCRASENSYSYLEWYQQKQGKSPQLLVYNAKTLAEGVPSRFSGSGSGTQFSLKINSLQPEDFGTYYCQHHYGTPYTFGGGTKLEMK

Each binder was assayed against T1, CD25 on CD25+ cells (SUDHL-1, HEK IL-2 …) (assay: flow cytometry, dose response on CD25+ SUDHL-1 cells;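 further: antibody binding to cells read as median fluorescence intensity of an AF647 anti-human Fc secondary, DAPI+ dead cells excluded, 20 min on ice, 5-fold dilutions from 10 ug/mL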).
Description: For each cell line, 100,000 cells were plated in a 96 well round bottom plate in cell buffer (PBS+2% HI FBS) and centrifuged. Antibody concentrations from 1-10 ug/mL were used to test the binding of each antibody. Cell were resuspended in 100 uL of antibodies/well and incubated for 20 minutes on ice. After incubation, cells were centrifuged at 300×g for 5 minutes at room temperature, and resuspended and washed with ice cold cell buffer. Cells were then stained with an anti-human Fc secondary antibody conjugated to AF647 (Biolegend) and incubated on ice for 20 min in the dark. Cells were centrifuged, washed and resuspended in cold cell buffer with DAPI and analyzed using flow cytometry (Cytoflex, Becton Dickinson). DAPI+ cell were excluded from analysis. The mean fluorescence intensity was calculated using the median (FlowJo, TreeStar).

Binder	EC50 [µg/mL]
B1	0.0715
B2	0.603
B3	0.116
B4	0.0959
B5	0.228
B6	0.0957
B7	0.294
B8	0.106
B9	0.109
B10	0.164
B11	0.109
B12	0.145
B13	0.159
B14	0.108
B15	0.108
B16	0.089
B17	0.165
B18	0.114
B19	0.11
B20	0.121
B21	1.49
